These sequences were tested on Escherichia coli TOP10 (assay: shrunken log2 fold change of peptide-encoding DNA abundance (4.5 h post-induction vs induction); higher = less antimicrobial activity (less host growth inhibition)). Conditions: time post-induction: 4.5 h; library: site-saturation at positions 5, 18, 19, 20.
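Further: peptides expressed intracellularly from a pBAD plasmid library in pooled LB shake-flask culture, induced with 0.3% L-arabinose, DNA abundance read by NGS, three biological replicates, DESeq2 with apeglm shrinkage.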

Row | Sequence | shrunken log2 fold change
1 | RRIRHRPPRLPRPRPRPVANPRP | -0.0206
2 | RRIRHRPPRLPRPRPRPVAPPRP | 0.222
3 | RRIRHRPPRLPRPRPRPVAYPRP | -0.332
4 | RRIRHRPPRLPRPRPRPVCTPRP | -0.108
5 | RRIRHRPPRLPRPRPRPVFCPRP | -0.138
6 | RRIRHRPPRLPRPRPRPVFSPRP | 0.0833
7 | RRIRHRPPRLPRPRPRPVGGPRP | 0.417
8 | RRIRHRPPRLPRPRPRPVGTPRP | 0.0773
9 | RRIRHRPPRLPRPRPRPVHAPRP | 0.346
10 | RRIRHRPPRLPRPRPRPVHGPRP | 0.131
11 | RRIRHRPPRLPRPRPRPVIAPRP | -0.134
12 | RRIRHRPPRLPRPRPRPVKEPRP | -0.00992
13 | RRIRHRPPRLPRPRPRPVLIPRP | -0.113
14 | RRIRHRPPRLPRPRPRPVLQPRP | -0.169
15 | RRIRHRPPRLPRPRPRPVMFPRP | -0.0942
16 | RRIRHRPPRLPRPRPRPVMLPRP | -0.196
17 | RRIRHRPPRLPRPRPRPVQGPRP | 0.207
18 | RRIRHRPPRLPRPRPRPVRWPRP | 0.98
19 | RRIRHRPPRLPRPRPRPVSDPRP | 0.132
20 | RRIRHRPPRLPRPRPRPVTNPRP | -0.222
21 | RRIRHRPPRLPRPRPRPVVNPRP | 0.00319
22 | RRIRHRPPRLPRPRPRPVWGPRP | 0.479
23 | RRIRHRPPRLPRPRPRPVWYPRP | 0.00395
24 | RRIRHRPPRLPRPRPRPWCDPRP | -0.559
25 | RRIRHRPPRLPRPRPRPWEKPRP | -0.359

Row | Sequence | shrunken log2 fold change
26 | RRIRHRPPRLPRPRPRPWFSPRP | -0.294
27 | RRIRHRPPRLPRPRPRPWGIPRP | -0.0176
28 | RRIRHRPPRLPRPRPRPWGRPRP | 0.0574
29 | RRIRHRPPRLPRPRPRPWHKPRP | -0.113
30 | RRIRHRPPRLPRPRPRPWMNPRP | -0.0538
31 | RRIRHRPPRLPRPRPRPWMTPRP | -0.225
32 | RRIRHRPPRLPRPRPRPWNLPRP | -0.278
33 | RRIRHRPPRLPRPRPRPWNPPRP | -0.221
34 | RRIRHRPPRLPRPRPRPWPDPRP | -0.0062
35 | RRIRHRPPRLPRPRPRPWPIPRP | -0.00691
36 | RRIRHRPPRLPRPRPRPWPKPRP | 0.015
37 | RRIRHRPPRLPRPRPRPWPPPRP | 0.491
38 | RRIRHRPPRLPRPRPRPWRMPRP | 0.0309
39 | RRIRHRPPRLPRPRPRPWTAPRP | -0.0875
40 | RRIRHRPPRLPRPRPRPWWDPRP | -0.0461
41 | RRIRHRPPRLPRPRPRPWWRPRP | 0.219
42 | RRIRHRPPRLPRPRPRPWWTPRP | 0.00261
43 | RRIRHRPPRLPRPRPRPWYWPRP | -0.115
44 | RRIRHRPPRLPRPRPRPYATPRP | -0.172
45 | RRIRHRPPRLPRPRPRPYCFPRP | -0.792
46 | RRIRHRPPRLPRPRPRPYCIPRP | -0.21
47 | RRIRHRPPRLPRPRPRPYDAPRP | -0.271
48 | RRIRHRPPRLPRPRPRPYENPRP | -0.0765
49 | RRIRHRPPRLPRPRPRPYFLPRP | -0.996
50 | RRIRHRPPRLPRPRPRPYGGPRP | -0.91

Row | Sequence | shrunken log2 fold change
51 | RRIRHRPPRLPRPRPRPYHAPRP | -1.21
52 | RRIRHRPPRLPRPRPRPYHTPRP | -0.132
53 | RRIRHRPPRLPRPRPRPYIFPRP | -0.446
54 | RRIRHRPPRLPRPRPRPYIVPRP | -0.191
55 | RRIRHRPPRLPRPRPRPYLIPRP | -0.574
56 | RRIRHRPPRLPRPRPRPYPFPRP | -0.772
57 | RRIRHRPPRLPRPRPRPYPIPRP | -0.887
58 | RRIRHRPPRLPRPRPRPYPVPRP | -0.00992
59 | RRIRHRPPRLPRPRPRPYQSPRP | 0.0306
60 | RRIRHRPPRLPRPRPRPYQVPRP | -0.0252
61 | RRIRHRPPRLPRPRPRPYRLPRP | -0.302
62 | RRIRHRPPRLPRPRPRPYTIPRP | -0.0416
63 | RRIRHRPPRLPRPRPRPYTQPRP | -0.711
64 | RRIRHRPPRLPRPRPRPYVRPRP | 0.017
65 | RRIRHRPPRLPRPRPRPYYQPRP | -0.416
66 | RRIRIRPPRLPRPRPRPAAWPRP | 0.112
67 | RRIRIRPPRLPRPRPRPACVPRP | 0.0215
68 | RRIRIRPPRLPRPRPRPADMPRP | -0.0222
69 | RRIRIRPPRLPRPRPRPAEFPRP | -0.0793
70 | RRIRIRPPRLPRPRPRPAERPRP | 0.0773
71 | RRIRIRPPRLPRPRPRPAGVPRP | 0.293
72 | RRIRIRPPRLPRPRPRPAIGPRP | -0.207
73 | RRIRIRPPRLPRPRPRPALHPRP | -0.268
74 | RRIRIRPPRLPRPRPRPANKPRP | -0.222
75 | RRIRIRPPRLPRPRPRPAPSPRP | 0.444

Row | Sequence | shrunken log2 fold change
76 | RRIRIRPPRLPRPRPRPAPYPRP | -0.406
77 | RRIRIRPPRLPRPRPRPAQDPRP | -0.0552
78 | RRIRIRPPRLPRPRPRPARAPRP | 0.307
79 | RRIRIRPPRLPRPRPRPARVPRP | -0.0658
80 | RRIRIRPPRLPRPRPRPASHPRP | -0.106
81 | RRIRIRPPRLPRPRPRPASTPRP | -0.0836
82 | RRIRIRPPRLPRPRPRPATGPRP | -0.119
83 | RRIRIRPPRLPRPRPRPAWPPRP | 0.339
84 | RRIRIRPPRLPRPRPRPAYFPRP | -0.411
85 | RRIRIRPPRLPRPRPRPAYNPRP | -0.111
86 | RRIRIRPPRLPRPRPRPAYPPRP | -0.829
87 | RRIRIRPPRLPRPRPRPCDAPRP | -0.27
88 | RRIRIRPPRLPRPRPRPCDHPRP | -0.752
89 | RRIRIRPPRLPRPRPRPCEVPRP | 0.0421
90 | RRIRIRPPRLPRPRPRPCGGPRP | 0.188
91 | RRIRIRPPRLPRPRPRPCGPPRP | -0.138
92 | RRIRIRPPRLPRPRPRPCGSPRP | -0.0454
93 | RRIRIRPPRLPRPRPRPCHPPRP | -0.447
94 | RRIRIRPPRLPRPRPRPCILPRP | -0.55
95 | RRIRIRPPRLPRPRPRPCIMPRP | -0.466
96 | RRIRIRPPRLPRPRPRPCISPRP | -0.32
97 | RRIRIRPPRLPRPRPRPCIYPRP | -0.0179
98 | RRIRIRPPRLPRPRPRPCLDPRP | -0.0653
99 | RRIRIRPPRLPRPRPRPCLFPRP | -0.639
100 | RRIRIRPPRLPRPRPRPCLWPRP | 0.0796

Row | Sequence | shrunken log2 fold change
101 | RRIRIRPPRLPRPRPRPCLYPRP | -0.248
102 | RRIRIRPPRLPRPRPRPCMCPRP | -0.422
103 | RRIRIRPPRLPRPRPRPCQKPRP | -0.0157
104 | RRIRIRPPRLPRPRPRPCSQPRP | -0.226
105 | RRIRIRPPRLPRPRPRPCSWPRP | -0.31
106 | RRIRIRPPRLPRPRPRPCTCPRP | -0.652
107 | RRIRIRPPRLPRPRPRPCTLPRP | -1.08
108 | RRIRIRPPRLPRPRPRPCTTPRP | -0.543
109 | RRIRIRPPRLPRPRPRPCYGPRP | -0.202
110 | RRIRIRPPRLPRPRPRPCYPPRP | -0.428
111 | RRIRIRPPRLPRPRPRPDAFPRP | -0.15
112 | RRIRIRPPRLPRPRPRPDCNPRP | -0.164
113 | RRIRIRPPRLPRPRPRPDCRPRP | -0.015
114 | RRIRIRPPRLPRPRPRPDFVPRP | -0.0852
115 | RRIRIRPPRLPRPRPRPDGDPRP | -0.176
116 | RRIRIRPPRLPRPRPRPDGGPRP | -0.446
117 | RRIRIRPPRLPRPRPRPDHTPRP | -0.25
118 | RRIRIRPPRLPRPRPRPDKHPRP | -0.979
119 | RRIRIRPPRLPRPRPRPDKIPRP | -0.0602
120 | RRIRIRPPRLPRPRPRPDKQPRP | 0.0185
121 | RRIRIRPPRLPRPRPRPDKRPRP | -0.0405
122 | RRIRIRPPRLPRPRPRPDLVPRP | -0.201
123 | RRIRIRPPRLPRPRPRPDQDPRP | -0.162
124 | RRIRIRPPRLPRPRPRPDRSPRP | -0.364
125 | RRIRIRPPRLPRPRPRPDRWPRP | 0.0549

Row | Sequence | shrunken log2 fold change
126 | RRIRIRPPRLPRPRPRPDRYPRP | -0.032
127 | RRIRIRPPRLPRPRPRPDTMPRP | -0.272
128 | RRIRIRPPRLPRPRPRPDYKPRP | -0.231
129 | RRIRIRPPRLPRPRPRPEAPPRP | 0.366
130 | RRIRIRPPRLPRPRPRPECMPRP | -0.428
131 | RRIRIRPPRLPRPRPRPECNPRP | -0.324
132 | RRIRIRPPRLPRPRPRPEDLPRP | -0.00555
133 | RRIRIRPPRLPRPRPRPEDMPRP | 0.0397
134 | RRIRIRPPRLPRPRPRPEDNPRP | -0.138
135 | RRIRIRPPRLPRPRPRPEGFPRP | -0.321
136 | RRIRIRPPRLPRPRPRPEGNPRP | 0.0775
137 | RRIRIRPPRLPRPRPRPEGSPRP | 0.0664
138 | RRIRIRPPRLPRPRPRPEIVPRP | -0.255
139 | RRIRIRPPRLPRPRPRPEKHPRP | -0.106
140 | RRIRIRPPRLPRPRPRPEKSPRP | 0.028
141 | RRIRIRPPRLPRPRPRPELGPRP | 0.0694
142 | RRIRIRPPRLPRPRPRPELLPRP | -0.0102
143 | RRIRIRPPRLPRPRPRPELNPRP | 0.12
144 | RRIRIRPPRLPRPRPRPELYPRP | -0.0779
145 | RRIRIRPPRLPRPRPRPEMAPRP | -0.061
146 | RRIRIRPPRLPRPRPRPEMLPRP | -0.119
147 | RRIRIRPPRLPRPRPRPEMNPRP | -0.0353
148 | RRIRIRPPRLPRPRPRPEMQPRP | 0.128
149 | RRIRIRPPRLPRPRPRPENTPRP | -0.397
150 | RRIRIRPPRLPRPRPRPEPGPRP | 0.253
